Test results taken from the supplement of paper PMC7125110.
± gives the standard error. For some assays here: Fewer inactive variants are shown than the library holds.

B1: glmS ribozyme (parent)
chain: AUAAAAGCGCCAGAACUACAGAAAUGUAGUUGACGAGGAGGAGGUUUAUCGAAUUUUCGGCGGAUGCCUCCAAA

Columns and labels:
Details in all cases: with glucosamine-6-phosphate
[1] = variants of: B1; assay: kcat; higher = faster cleavage; RNA array
In short: (§1)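 Tiles bearing barcoded ribozyme variants, transcribed in situ by E. coli RNA polymerase on sequenced MiSeq chips, were imaged over ~14 h at 37 °C using a hybridised Cy3 probe. Glucosamine-6-phosphate was supplied at 40 μM to 10 mM in HEPES/KCl/Mg(OAc)2 buffer. kobs came from one- or two-exponential decay fits to normalised per-tile medians, and weighted Michaelis–Menten fits then provided kcat and KM.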

[2] = variants of: B1; assay: self-cleavage kobs at 2500 uM GlcN6P; higher = faster cleavage; RNA array
In short: as §1

[3] = variants of: B1; assay: self-cleavage kobs at 10000 uM GlcN6P; higher = faster cleavage; RNA array
In short: as §1

[4] = variants of: B1; assay: self-cleavage kobs at 160 uM GlcN6P; higher = faster cleavage; RNA array
In short: as §1

[5] = variants of: B1; assay: self-cleavage kobs at 640 uM GlcN6P; higher = faster cleavage; RNA array
In short: as §1

[6] = variants of: B1; assay: KM; higher = weaker cofactor use; RNA array
In short: as §1

[7] = variants of: B1; assay: self-cleavage kobs at 40 uM GlcN6P; higher = faster cleavage; RNA array
In short: as §1

| Variant | kcat [1] [s⁻¹] | self-cleavage kobs at 2500 uM GlcN6P [2] [s⁻¹] | self-cleavage kobs at 10000 uM GlcN6P [3] [s⁻¹] | self-cleavage kobs at 160 uM GlcN6P [4] [s⁻¹] | self-cleavage kobs at 640 uM GlcN6P [5] [s⁻¹] | KM [6] [µM] | self-cleavage kobs at 40 uM GlcN6P [7] [s⁻¹] |
| --- | --- | --- | --- | --- | --- | --- | --- |
| A6G U31C | 6.74e-05 ± 1.3e-05 | 5.13e-05 ± 7.6e-06 | 5.58e-05 ± 7.5e-06 |  |  |  |  |
| U31G U46A | 0.000771 ± 0.00021 | 0.000954 ± 0.00016 | 0.000614 ± 0.0001 | 0.000124 ± 3.6e-05 | 0.000258 ± 6.7e-05 |  |  |
| G29C C67A C71U | 0.0001 ± 1.5e-05 | 7.49e-05 ± 1.9e-05 | 0.000106 ± 1.9e-05 |  | 0.000116 ± 2.2e-05 |  |  |
| U56C C67U | 3.78e-05 ± 8.1e-07 |  |  | < 1e-05 |  | 7870 ± 360 | < 1e-05 |
| G29C C58A | 0.000126 ± 8e-06 | 8.42e-05 ± 1.4e-05 | 0.000108 ± 1.5e-05 |  | 3.49e-05 ± 1.2e-05 | 1420 ± 280 |  |
| C11U U55A U56G | 0.000956 ± 0.00038 | 0.000451 ± 0.00012 | 0.00113 ± 0.00024 |  | 0.000289 ± 4.5e-05 |  | 4.23e-05 ± 1.9e-05 |
| G29U U47A | 0.00313 ± 0.00095 | 0.00104 ± 0.00036 | 0.0033 ± 0.00035 |  | 0.000972 ± 0.00015 | 1350 ± 650 | 9.83e-05 ± 1.2e-05 |
| A14U U31A | 0.0165 ± 0.0068 | 0.00761 ± 0.0014 | 0.028 ± 0.0038 | 0.00191 ± 0.00038 | 0.00488 ± 0.00072 |  | 0.000492 ± 4e-05 |
| A36U U69C | 2.28e-05 ± 3.7e-06 |  |  |  |  |  |  |
| U49G C61A | 1.48e-05 ± 3.5e-06 |  |  |  |  |  |  |
| U47C A64G | 0.00525 ± 0.0013 | 0.0019 ± 0.00068 | 0.00499 ± 0.00066 | 0.000324 ± 9e-05 | 0.00115 ± 0.00027 | 1890 ± 650 | 0.000131 ± 1.7e-05 |
| A6C U55A | 9.15e-05 ± 2.5e-05 | 7.01e-05 ± 1.6e-05 | 7.27e-05 ± 1.2e-05 |  |  |  |  |
| A12C C50U | 0.000203 ± 3.3e-05 | 7.01e-05 ± 1.5e-05 |  |  |  | 4750 ± 1100 |  |
| C50U U69G C70U | 5.07e-05 ± 2.4e-05 |  |  |  | 8.65e-05 ± 3.1e-05 |  |  |
| A14U A42U | 3.26e-05 ± 1.5e-06 |  | 3.02e-05 ± 7.7e-06 |  |  | 884 ± 270 |  |
| G29U G66U | 0.000182 ± 1.7e-05 | 0.000151 ± 2.6e-05 | 0.000156 ± 1.6e-05 |  | 5.65e-05 ± 1.1e-05 | 1300 ± 360 |  |
| C50U U55A | 8.88e-05 ± 8.3e-06 | 4.32e-05 ± 6.8e-06 | 7.37e-05 ± 9.9e-06 |  | 2.43e-05 ± 9.1e-06 | 2350 ± 570 |  |

| Variant | kcat [1] [s⁻¹] | self-cleavage kobs at 2500 uM GlcN6P [2] [s⁻¹] | self-cleavage kobs at 10000 uM GlcN6P [3] [s⁻¹] | self-cleavage kobs at 160 uM GlcN6P [4] [s⁻¹] | self-cleavage kobs at 640 uM GlcN6P [5] [s⁻¹] | KM [6] [µM] | self-cleavage kobs at 40 uM GlcN6P [7] [s⁻¹] |
| --- | --- | --- | --- | --- | --- | --- | --- |
| C8A C61U G66A | < 1e-05 | < 1e-05 |  |  | < 1e-05 |  |  |
| G40A U56G | 0.0035 ± 0.00093 | 0.00224 ± 0.00044 | 0.00256 ± 0.00054 | 0.000189 ± 3e-05 | 0.000577 ± 7.7e-05 | 2840 ± 950 | 6e-05 ± 1.3e-05 |
| G32U C68G | 1.3e-05 ± 1.3e-06 |  |  |  |  |  |  |
| U47G C71A | 0.00107 ± 0.00043 | 0.000556 ± 0.0001 | 0.00146 ± 0.0002 |  | 0.000443 ± 0.0001 |  | 5.64e-05 ± 1.4e-05 |
| A14C G26A | 0.00194 ± 0.00022 | 0.00142 ± 0.00041 | 0.00166 ± 0.00037 |  | 0.000887 ± 0.00023 | 1030 ± 190 | 6.7e-05 ± 1.7e-05 |
| G59A G63U | < 1e-05 | < 1e-05 |  |  |  | 294 ± 68 | < 1e-05 |
| G7U A52G C70G | 3.01e-05 ± 9.2e-06 |  |  |  |  |  |  |
| G40C A52U | 8.17e-05 ± 1.4e-05 | 7.08e-05 ± 9.7e-06 | 7.15e-05 ± 8.3e-06 |  |  |  |  |
| A53C G59U | < 1e-05 |  |  |  |  |  |  |
| A15G A39G | 0.024 ± 0.0095 | 0.037 ± 0.017 | 0.0199 ± 0.0048 | 0.00251 ± 0.00078 | 0.0174 ± 0.0035 |  | 0.0013 ± 0.00018 |
| G40U A48G | 8.97e-05 ± 4.3e-05 |  | 3.18e-05 ± 8.1e-06 |  |  |  | < 1e-05 |
| G13U G38C | < 1e-05 |  | < 1e-05 |  | < 1e-05 |  |  |
| G32U U55A | 0.00193 ± 0.00061 | 0.000332 ± 5.9e-05 | 0.00102 ± 8.2e-05 | 4.22e-05 ± 1.4e-05 | 0.000132 ± 2e-05 | 9310 ± 4500 | 2.84e-05 ± 1e-05 |
| A14U U55G | 0.00848 ± 0.0029 | 0.0041 ± 0.00047 | 0.0105 ± 0.0021 | 0.000508 ± 8e-05 | 0.00176 ± 0.00023 | 2280 ± 1100 | 0.000209 ± 3.1e-05 |
| U54G C68G | 0.0001 ± 1e-05 | 8.41e-05 ± 9.1e-06 | 9.69e-05 ± 8.7e-06 | 6.82e-05 ± 8.7e-06 | 0.000111 ± 1.1e-05 | 89.1 ± 43 | 2.37e-05 ± 7.3e-06 |
| A14G G66C | 0.00168 ± 6.5e-05 | 0.00114 ± 0.00025 | 0.00147 ± 0.00015 |  | 0.000484 ± 0.00012 | 1410 ± 110 | 4.79e-05 ± 9.1e-06 |
| U55C C71A | 0.000398 ± 3.4e-05 | 0.000174 ± 1.9e-05 | 0.000283 ± 2.2e-05 |  | 5.32e-05 ± 6.9e-06 | 3820 ± 600 |  |
